Assay [1] addresses T1, mouse MuSK (mouse, UniProt Q61006 22-494, limits assumed).
T1 construct: Coated on ELISA plates or on the Biacore chip; also called full length mouse MuSK; mouse MuSK (in house produced in HEK293 cells)
T1 sequence (looked up): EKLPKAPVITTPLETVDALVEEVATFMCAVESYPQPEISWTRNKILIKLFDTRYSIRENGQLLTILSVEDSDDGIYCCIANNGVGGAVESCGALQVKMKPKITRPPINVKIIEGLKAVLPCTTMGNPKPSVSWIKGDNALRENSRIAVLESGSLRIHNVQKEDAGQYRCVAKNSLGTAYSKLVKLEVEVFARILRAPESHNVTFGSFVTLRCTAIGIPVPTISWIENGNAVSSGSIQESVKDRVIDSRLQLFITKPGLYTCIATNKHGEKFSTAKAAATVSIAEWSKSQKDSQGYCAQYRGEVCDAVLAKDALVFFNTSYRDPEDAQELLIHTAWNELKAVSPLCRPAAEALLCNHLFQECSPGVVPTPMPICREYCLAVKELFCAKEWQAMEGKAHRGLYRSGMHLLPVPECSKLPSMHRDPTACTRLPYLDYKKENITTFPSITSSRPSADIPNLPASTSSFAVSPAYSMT
As to the kind of experiment: Biacore T200, MuSK on chip (200RU), 22.2 nM Fab, dissociation pH 7.4. The essentials: (§1)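 Surface plasmon resonance was run with both human and mouse MuSK immobilized on the sensor chip. Fab association was always performed at pH 7.4 before the dissociation phase. Kinetic parameters were calculated from the binding curves.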
Background: Surface plasmon resonance follows binding to a sensor surface in real time, without labels.

Assay [2] has as its target T2, human MuSK (human, UniProt O15146 24-495).
T2 construct: Recombinant protein coated on ELISA plates (R&D Systems cat. 10189-MK) or on the Biacore chip; also called human muscle-specific tyrosine protein kinase; full length human MuSK
T2 sequence: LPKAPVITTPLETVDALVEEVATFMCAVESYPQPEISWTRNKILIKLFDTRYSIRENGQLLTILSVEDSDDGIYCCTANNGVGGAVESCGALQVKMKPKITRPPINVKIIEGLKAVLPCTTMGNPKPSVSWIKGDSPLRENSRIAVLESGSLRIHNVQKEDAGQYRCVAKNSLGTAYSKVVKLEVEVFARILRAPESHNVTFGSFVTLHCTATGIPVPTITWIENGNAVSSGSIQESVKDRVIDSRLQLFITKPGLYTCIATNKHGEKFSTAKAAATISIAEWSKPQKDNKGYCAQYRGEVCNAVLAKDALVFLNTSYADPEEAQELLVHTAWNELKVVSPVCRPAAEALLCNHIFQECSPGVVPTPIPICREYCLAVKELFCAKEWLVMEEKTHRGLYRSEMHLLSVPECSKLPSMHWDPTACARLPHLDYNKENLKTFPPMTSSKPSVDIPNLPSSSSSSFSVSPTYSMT
The assay is described as above. The essentials: as §1

Assay [3] deals with T1, mouse MuSK. The assay is described as follows: Biacore T200, off rate at pH 5.5 against pH 7.4. The method in brief: as §1
Assay [4] has as its target T2, human MuSK. The assay is described as follows: Biacore T200, off rate at pH 5.5 against pH 7.4. The essentials: as §1
For assay [5], the target named is T3, hFz: Fz domain and C-terminal flanking sequence of human MuSK (K314-T495) with C-terminal Avi- and His6-tags (human, UniProt O15146 314-495, biotinylated in vitro using the BirA enzyme).
T3 construct: also called human Fz; not shown: Avi- and His6-tags
T3 sequence: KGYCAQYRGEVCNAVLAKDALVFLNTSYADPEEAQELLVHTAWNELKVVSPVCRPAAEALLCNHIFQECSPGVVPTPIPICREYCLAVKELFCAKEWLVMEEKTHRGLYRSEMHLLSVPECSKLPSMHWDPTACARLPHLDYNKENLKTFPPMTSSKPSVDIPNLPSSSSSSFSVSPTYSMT
As to the kind of experiment: bead-binding titration, Fab format: antigen immobilized on streptavidin beads, MFI by flow cytometry, curve is the 1:1 fit. Background: A flow cytometer gives signals particle by particle.

Assay [6] concerns the target T4, mECD: full-length extracellular region of mouse MuSK (E22 to T494) with C-terminal Avi- and His6-tags (mouse, UniProt Q61006 22-494, biotinylated in vitro using the BirA enzyme).
T4 construct: range 22-494; also called mouse ECD; not shown: Avi- and His6-tags
T4 sequence (looked up): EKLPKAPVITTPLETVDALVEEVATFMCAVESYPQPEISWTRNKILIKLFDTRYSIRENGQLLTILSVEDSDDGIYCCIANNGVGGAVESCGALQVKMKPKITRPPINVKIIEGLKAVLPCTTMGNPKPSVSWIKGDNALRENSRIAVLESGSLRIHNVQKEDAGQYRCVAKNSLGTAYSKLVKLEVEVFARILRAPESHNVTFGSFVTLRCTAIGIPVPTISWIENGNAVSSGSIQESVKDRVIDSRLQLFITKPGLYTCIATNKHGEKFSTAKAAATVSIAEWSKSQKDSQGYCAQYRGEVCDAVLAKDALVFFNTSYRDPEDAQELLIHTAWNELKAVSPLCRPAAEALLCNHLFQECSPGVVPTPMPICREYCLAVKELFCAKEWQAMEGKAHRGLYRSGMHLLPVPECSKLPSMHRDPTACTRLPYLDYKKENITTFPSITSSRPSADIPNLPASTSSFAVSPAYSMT
The description is as above.

Assay [7] has as its target T5, mFz: Fz domain and C-terminal flanking sequence of mouse MuSK (D307 to T494) with C-terminal Avi- and … (mouse, UniProt Q61006 307-494, limits assumed, biotinylated in vitro using the BirA enzyme).
T5 construct: also called mouse Fz; not shown: Avi- and His6-tags
T5 sequence (looked up): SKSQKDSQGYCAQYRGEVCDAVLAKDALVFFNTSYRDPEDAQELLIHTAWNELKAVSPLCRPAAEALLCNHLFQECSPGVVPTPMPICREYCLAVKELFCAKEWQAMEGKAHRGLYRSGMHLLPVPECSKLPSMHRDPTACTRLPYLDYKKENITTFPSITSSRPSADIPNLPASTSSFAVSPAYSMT
The description is as above.

Experimental findings from US20230151091A1 (NEW YORK UNIVERSITY, published 2023) are described below.

B1: X2 Fab (Fab, V domains shown)
VH: EVQLVESGGGLVQPGGSLRLSCAASGFTVSSSSIHWVRQAPGKGLEWVASISSSYGSTSYADSVKGRFTISADTSKNTAYLQMNSLRAEDTAVYYCARSEGDRYVSGYMGMDYWGQGTLVTVSS
VL: DIQMTQSPSSLSASVGDRVTITCRASQSVSSAVAWYQQKPGKAPKLLIYSASSLYSGVPSRFSGSRSGTDFTLTISSLQPEDFATYYCQQSGVWLITFGQGTKVEIK
notes: Fab format
The koff is the first-order rate constant of dissociation. Higher therefore signals fast dissociation. The EC50 (read off the curve) is the concentration at which the effect is half-maximal. A low value points to an effect from little substance. Consider B1, for which the koff with mouse MuSK [1] was 0.00053 s⁻¹; with human MuSK [2] it was 0.00057 s⁻¹. Besides, the “Ratio pH 5.5/7.4 of off rate” value with mouse MuSK [3] was 1; with human MuSK [4], 0.6. Further, the “EC50 (read off the curve)” value in assay [5] was about 0.5 nM; in assay [6], about 0.6 nM; in assay [7], about 0.5 nM.

B2: X3 Fab (Fab, V domains shown)
VH: EVQLVESGGGLVQPGGSLRLSCAASGFTISSSSIHWVRQAPGKGLEWVASISSSSGYTYYADSVKGRFTISADTSKNTAYLQMNSLRAEDTAVYYCARSWYEMWMSGYFGFDYWGQGTLVTVSS
VL: DIQMTQSPSSLSASVGDRVTITCRASQSVSSAVAWYQQKPGKAPKLLIYSASSLYSGVPSRFSGSRSGTDFTLTISSLQPEDFATYYCQQSSSSLITFGQGTKVEIK
notes: Fab format
Regarding B2, the values for the koff in the assay with mouse MuSK [1] and with human MuSK [2] were 0.00558 s⁻¹ and 0.00063 s⁻¹, respectively. Further, the figures for the “Ratio pH 5.5/7.4 of off rate” value with mouse MuSK [3] and with human MuSK [4] were 4.4 and 3.5, respectively. The figures for the “EC50 (read off the curve)” value in assay [5], in assay [6] and in assay [7] were about 0.1 nM, about 0.4 nM and about 0.3 nM, respectively.
